Assay [1] addresses human βB2-crystallin Q70E (human). The assay is described as follows: dynamic light scattering.
The target is the same in assay [2]. The assay can be described thus: small angle X-ray scattering.
For assay [3], the target named is human βB2-crystallin Q162E (human). The assay can be described thus: dynamic light scattering.
Assay [4] has the same target. The assay is described as follows: small angle X-ray scattering.
Assay [5] deals with human βB2-crystallin doubly deamidated mutant Q70EQ162E (human). The assay is described as follows: dynamic light scattering.
Assay [6] has the same target. The assay is described as follows: small angle X-ray scattering.

The term stoichiometry N denotes the number of molecules, sites or subunits per partner or assembly.

Consider “human βB2-crystallin Q70E (natural protein)”, for which the stoichiometry N in assay [1] and in assay [2] was 2 in each case.

In the case of “human βB2-crystallin Q162E (natural protein)”, the stoichiometry N in assay [3] and in assay [4] was 2 throughout.

For the substance “human βB2-crystallin doubly deamidated mutant Q70EQ162E (natural protein)”, the stoichiometry N in assay [5] and in assay [6] was 2 each time.

The record behind these values is paper PMC2904749.
